This test deals with TRPV6_(CysKO) D34C-R631C double mutant (rat) (UniProt Q9R186). Nature of the test: cross-linking.

What is called stoichiometry N is the number of molecules, sites or subunits per partner or assembly.

The substance “TRPV6_(CysKO) D34C-R631C double mutant (from UniProt Q9R186 1-668) (natural protein)” displayed a stoichiometry N of 4.

Values taken from publication PMC4919205.
